# According to patent EP4740964A1, “NANO DELIVERY SYSTEM, PREPARATION METHOD THEREFOR AND USE THEREOF” (Chen, Haiyan, priority 2023, dated 2025):
# Legend:
# [1] = biological target: T1, CD19 on the surface of Raji cells (UniProt P15391 20-556, limits assumed); test: flow cytometry on Raji cells, Alexa Fluor 488 anti-human IgG detection
# T1 construct: whole, on cells; also called antigen CD19
# T1 sequence (looked up): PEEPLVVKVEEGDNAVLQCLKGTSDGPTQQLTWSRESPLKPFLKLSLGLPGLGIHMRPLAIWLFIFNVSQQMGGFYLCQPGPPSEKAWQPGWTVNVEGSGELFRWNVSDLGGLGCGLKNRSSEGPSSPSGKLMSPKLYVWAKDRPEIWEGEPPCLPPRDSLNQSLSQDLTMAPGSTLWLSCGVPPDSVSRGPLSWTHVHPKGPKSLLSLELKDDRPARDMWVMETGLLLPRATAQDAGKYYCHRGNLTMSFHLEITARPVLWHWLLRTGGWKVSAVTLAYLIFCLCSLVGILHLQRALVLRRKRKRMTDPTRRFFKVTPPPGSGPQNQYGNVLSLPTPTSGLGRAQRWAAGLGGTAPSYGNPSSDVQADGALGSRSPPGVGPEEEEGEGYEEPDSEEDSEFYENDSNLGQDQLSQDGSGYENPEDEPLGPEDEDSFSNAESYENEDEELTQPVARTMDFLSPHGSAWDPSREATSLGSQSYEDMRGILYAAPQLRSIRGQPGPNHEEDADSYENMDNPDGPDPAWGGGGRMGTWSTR
# [2] = biological target: T2, CD22 on the surface of Raji cells (UniProt P20273 20-847, limits assumed); test: as above
# T2 construct: whole, on cells; also called antigen CD22
Binder,binding result [1],binding result [2]
"CD19 IgG antibody (antibody, V domains shown) VH: QVQLVQSGAEVKKPGSSVKVSCKASGYAFSSYWMNWVRQAPGQGLEWMGQIWPGDSDTNYAQKFQGRVTITADESTSTAYMELSSLRSEDTAVYYCARRETTTVGRYYYAMDYWGQGTTVTVSS VL: DIQLTQSPSFLSASVGDRVTITCKASQSVDYSGDSYLNWYQQKPGKAPKLLIYDASNLVSGVPSRFSGSGSGTEFTLTISSLQPEDFATYYCQQSTENPWTFGGGTKLEIKR",binds,–
"CD19 antibody antigen-binding fragment Fab (Fab, V domains shown, also called CD19 Fab) VH: QVQLVQSGAEVKKPGSSVKVSCKASGYAFSSYWMNWVRQAPGQGLEWMGQIWPGDSDTNYAQKFQGRVTITADESTSTAYMELSSLRSEDTAVYYCARRETTTVGRYYYAMDYWGQGTTVTVSS VL: DIQLTQSPSFLSASVGDRVTITCKASQSVDYSGDSYLNWYQQKPGKAPKLLIYDASNLVSGVPSRFSGSGSGTEFTLTISSLQPEDFATYYCQQSTENPWTFGGGTKLEIKR",binds,–
"CD22 IgG antibody (antibody, V domains shown) VH: EVQLVQSGAEVKKPGASVKVSCKASGYRFTNYWIHWVRQAPGQGLEWIGGINPGNNYATYRRKFQGRVTMTADTSTSTVYMELSSLRSEDTAVYYCTREGYGNYGAWFAYWGQGTLVTVSS VL: DVQVTQSPSSLSASVGDRVTITCRSSQSLANSYGNTFLSWYLHKPGKAPQLLIYGISNRFSGVPDRFSGSGSGTDFTLTISSLQPEDFATYYCLQGTHQPYTFGQGTKVEIKR",–,binds
